{
  "source": "patent US20110027235",
  "key": {"[1]": {"system": "ZFN 16234 (OCT4 pair 3, L) (synthetic)", "experiment": "cell_activity", "details": "ZFN pair 3 with 16233, 2.5 ug, BG01 hESC; only 2 clones; 0% at 10 ug (1 clone); labelled pair 2 in Table 3"}, "[2]": {"system": "ZFN 16233 (OCT4 pair 3, R) (synthetic)", "experiment": "cell_activity", "details": "ZFN pair 3 with 16234, 2.5 ug, BG01 hESC; only 2 clones; 0% at 10 ug (1 clone); labelled pair 2 in Table 3"}},
  "data": [
    {"sequence": "CCCAGGAGAGGAGCAGGCAGGGTCAGCT (double strand) [OCT4 target of 16234]", "values": [
      {"measurement": "activity (% targeting efficiency)", "setting": "[1]", "result": 50}
    ]},
    {"sequence": "GCCAGGTCTGGGCAGCTGCAGGTGACCA (double strand) [OCT4 target of 16233]", "values": [
      {"measurement": "activity (% targeting efficiency)", "setting": "[2]", "result": 50}
    ]}
  ]
}
